Experiments:
[1] = target: T1, vitronectin (VN) (human, UniProt P04004 20-478); experiment: plate assay: uPAR/mFc (5 nM) with increasing uPA on immobilized VN (FIG. 4C)
T1 construct: also called immobilized VN
Procedure: 96-well immuno plates (NUNC MaxiSorb, blackwell) were coated with pro-uPA or VN (100 μl, 10 nM) diluted in coating buffer (50 mM sodium carbonate, pH 9.6) at 4° C. ON. Plates were washed with wash buffer (phosphate buffered saline (PBS) containing 0.1% Tween-20 (PBS-T)) and non-specific binding sites blocked (0.15 ml/well) with blocking buffer (PBS containing 2% bovine serum albumin (BSA)) for 1-2 hour at RT. […] The binding was allowed to occur for 1-2 hours at RT and the plates washed three times with wash buffer. Bound uPAR/mFc was detected by sequential incubations with a biotinylated goat anti-mouse Fc antibody (Sigma) and Eu³⁺ labeled streptavidin (Perkin Elmer). Bound Eu³⁺ was quantified by dissociation-enhanced time-resolved fluorescence measurement using an Envision Xcite plate reader (Perkin Elmer) using the DELFIA protocol.
To test the activity of uPAR-lock as an antagonist of the uPAR:VN-interaction the author utilized a binding assay in which uPAR/mFc is allowed to bind immobilized VN in the presence of uPA (FIG. 4C). In this assay uPAR/mFc binds to immobilized VN with high affinity in an uPA-dependent manner. To test the activity of uPAR-lock the author conducted the experiment with a fixed concentration of uPAR/mFc (1 nM) and an excess of uPA (5 nM) mixed with increasing concentrations of uPAR-lock or uPA for comparison (FIG. 4D). […]

[2] = target: T2, urokinase-type plasminogen activator (uPA) (human, UniProt P00749 21-431); experiment: plate assay: increasing uPAR/mFc on immobilized uPA, anti-mouse Fc and Eu-streptavidin (FIG. 4A)
T2 construct: also called pro-uPA; immobilized uPA
Procedure: Immobilized uPA was incubated with increasing concentrations of uPAR tagged with a mouse Fc (uPAR/mFc). After washing bound uPAR/mFc was quantified using a biotinylated anti-mouse Fc antibody and Europium labeled streptavidin. Note that uPAR/mFc display specific high-affinity binding to immobilized uPA.
96-well immuno plates (NUNC MaxiSorb, blackwell) were coated with pro-uPA or VN (100 μl, 10 nM) diluted in coating buffer (50 mM sodium carbonate, pH 9.6) at 4° C. ON. Plates were washed with wash buffer (phosphate buffered saline (PBS) containing 0.1% Tween-20 (PBS-T)) and non-specific binding sites blocked (0.15 ml/well) with blocking buffer (PBS containing 2% bovine serum albumin (BSA)) for 1-2 hour at RT. After washing with PBS-T, wells were incubated with uPAR/mFc (1 nM) in the presence or absence of the agonists and antagonists to be tested prepared in dilution buffer (PBS containing 1% BSA). The binding was allowed to occur for 1-2 hours at RT and the plates washed three times with wash buffer. Bound uPAR/mFc was detected by sequential incubations with a biotinylated goat anti-mouse Fc antibody (Sigma) and Eu³⁺ labeled streptavidin (Perkin Elmer). Bound Eu³⁺ was quantified by dissociation-enhanced time-resolved fluorescence measurement using an Envision Xcite plate reader (Perkin Elmer) using the DELFIA protocol.

T1 sequence (P04004 20-478): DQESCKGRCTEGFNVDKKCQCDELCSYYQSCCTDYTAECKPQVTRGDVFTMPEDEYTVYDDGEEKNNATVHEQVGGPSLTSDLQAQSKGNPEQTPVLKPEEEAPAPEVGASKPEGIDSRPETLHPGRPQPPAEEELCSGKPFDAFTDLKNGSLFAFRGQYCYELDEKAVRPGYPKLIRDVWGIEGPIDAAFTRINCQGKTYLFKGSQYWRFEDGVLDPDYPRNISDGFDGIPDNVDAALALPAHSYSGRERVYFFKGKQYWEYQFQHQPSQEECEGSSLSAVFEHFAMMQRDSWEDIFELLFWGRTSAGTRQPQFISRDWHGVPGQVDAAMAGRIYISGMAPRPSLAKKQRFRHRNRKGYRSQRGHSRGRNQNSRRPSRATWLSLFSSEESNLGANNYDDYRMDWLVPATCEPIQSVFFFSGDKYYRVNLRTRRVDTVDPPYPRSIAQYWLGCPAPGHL

binding result [1]: binds
binding result [2]: binds
B1: uPAR/mFc (human uPAR tagged with a murine immunoglobulin heavy chain constant region) (Fc fusion)
chain: LRCMQCKTNGDCRVEECALGQDLCRTTIVRLWEEGEELELVEKSCTHSEKTNRTLSYRTGLKITSLTEVVCGLDLCNQGNSGRAVTYSRSRYLECISCGSSDMSCERGRHQSLQCRSPEEQCLDVVTHWIQEGEEGRPKDDRHLRGCGYLPGCPGSNGFHNNDTFHFLKCCNTTKCNEGPILELENLPQNGRQCYSCKGNSTHGCSSEETFLIDCRGPMNQCLVATGTHEPKNQSYMVRGCATASMCQHAHLGDAFSMNHIDVSCCTKSGCNHPDLDLEVLFQGPLEAGAG
notes: also called uPAR tagged with a mouse Fc; Fc-tagged uPAR; not shown: mouse immunoglobulin IgG1 heavy chain, amino acids 216-441 numbered according to Adetugbo 1978 (clone IRAVp968B035D); th

From patent publication US20130280162A1 (IFOM FONDAZIONE ISTITUTO FIRC DI ONCOLOGIA MOLECOLARE, published 2013)
